Results on 20 molecules are retold here after publication PMC10021056 (Nature Communications, 2023).

Assay [1] has as its target postfusion Nipah virus fusion (F) glycoprotein, construct NiVF_postfusion (Nipah virus, Malaysian strain, stabilised).
Assay [2] addresses prefusion-stabilized Nipah virus fusion (F) glycoprotein, construct NiVF_prefusion (Nipah virus, Malaysian strain, stabilised).
The target of assay [3] is prefusion-stabilized NiV F (NiVop08) (Nipah virus, Malaysian strain, stabilised).

B1: 201805_NiV_P1_G1 (antibody, V domains shown)
VH: QVQLQQSGAELAKPGASVKLSCKATGYTFTGSWIEWVKLRPGHGLEWFGEIFPGTGSVKHNEKFRGKAIITAETSSNTAYMKLSSLTTEDSAIYFCSRSNTNYEFFDVWGTGTTVTVSS
VL: EILLTQSPAIISASPGERVTFTCSASSGVNYMNWYQQKPGSSPKIWIYGVSNLASGVPARFSGSGSGTSFSFTITNLEAEDVATYYCQQRSTFPLTFGAGTKLEIK
On to B1, for which the binding result in assay [1] and in assay [2] was “binds” throughout.

B2: 201805_NiV_PL4_E1 (antibody, V domains shown)
VH: EVQLEESGGGLVPGGSLKLSCAASGFTFSDYYMYWVRQTPEKRLEWVATISDGGSYTYYPDSVKGRFTISRDNAKNNLYLQMSSLKSEDTAMYYCAREKPDRGHYYAMDYWGQGTSVTVLQ
VL: IQMTQSSSSFSVSLGDRVTITCKASEDIYNRLAWYQQKPGNAPRLLISGATSLETGVPSRFSGSGSGKDYTLSITSLQTEDVATYYCQQYWSTPYTFGGGTKLKN
Turning to B2, in assay [2], the binding result is “binds”.

B3: 201805_NiV_P1_A6 (antibody, V domains shown)
VH: LCLLTSSRSGLVRPGASVKLSCKASGYSFTSYWMNWVKQRPGHGLEWIGMIHPSDSETRLNQRFKDKATLTVDKSSSTAYMQLSSPTSEDSAVYYCAREDFYAMDYWGQGTSVTFSA
VL: DIVMSQSPSSLAVSVGEKITMSCKSSQSLLYSSNKKKYLAWYQQKPGQSPKLLIYWASTRESGVPDRFTGSGSGTDFTLTISSVKAEDLAVYYCQQYYSYPYTFGGGPSNKR
Turning to B3, the binding result in assay [1] and in assay [2] was “binds” in each case.

B4: 201805_NiV_PL4_C7 (antibody, V domains shown)
VH: FEESGGLVQPGGSMKISCVASGFTFSNYWMNWVRQSPEKGLEWIAQIRLKSDNYATHYAESVKGRFTISRDDSKSSVYLQMNNLRAEDSGIYYCTGILDYWGQGTSVTVSQ
VL: YIQMTQSPSSMSVSLGDTVSITCHASQGISSNIGWLQQKPGKSFKVLIYHGTNLEDGVPSRFSGSGSGADYSLTISSLESEDFADYYCVQYAQFPYTFGGGPNDKT
Take B4: the binding result in assay [2] is “binds”.

B5: 201805_NiV_PL3_H6 (antibody, V domains shown)
VH: EVQLEESGGGLVKPGGSLKLSCTASGFAFSTYDMSWVRQTPEKRLEWVAYISSGGGSTYYPDSVKGRFTISRDNARNTLYLQMSSLKSDDTAMYYCVRDDGYYGGAWFAYWGQGTLVTVSA
VL: DIQMTQTTSSLSASLGDRVTISCRASQDIRNYLNWYQQKPDGTVKLLIYYTSRFHSGVPSRFSGSGSGTDYSLTINNLEQEDITTYFCQQGYILPWTFGGGTKLEIK
B5: the binding result in assay [1] and in assay [2] was “binds” each time.

B6: 201805_NiV_P2_D4 (antibody, V domains shown)
VH: EVQLQQSGAELVKPGASVKMSCKASGYTFTDYSIHWVKQKSGQGLEWIGWFYPGSGSIKNSDKVKDEAILTADKSSSTVYLELSSLTSEDSAVYFCARHGGGYDYGRAWFVYWGQGTLVTLEQ
VL: FTQMTQSPKFLLVSAGDRVTITCKASQSVSNDVAWYQQKPGQSPKLLIYYASNRYTGVPDRFTGSGYGTDFTFTISTVQAEDLAVYFCQQDYGSPYTFGGGTKLKN
Take B6: in assay [2], the binding result is “binds”.

B7: 201805_NiV_PL3_E1 (antibody, V domains shown)
VH: RFRLQQSGAELVKPGASVKLSCRASGYIFTSYWMHWVKQRPGQGLEWIGMIHPNSGSPNYNEKFKSKATLTVDNSSSTAYMQLSSLTSEDSAVYYCARTLLGQGAWFAYWGQGTLVTLAA
VL: YIQMTLSPATLSVTPGDRVSLSCRASQSISDFLHWYQQKSHESPRLLIKYASQSISGIPSRFSGSGSGSDFTLSINSVEPEDVGVYYCQNGHSFPYTFGGGTKLKT
In the case of B7, the binding result in assay [1] and in assay [2] was “binds” each time.

B8: 201805_NiV_PL4_E11 (antibody, V domains shown)
VH: QVQLQQSGAELVKPGASVKLSCKASGYTFTNYDINWVRQRPEQGLEWIGWIFPGDGTTSYNEKFKDKATLTTDKSSSTAYMQLSRLTSEDSTVYFCARLGWGGAMDYWGQGTSVTVSA
VL: YTLMTQSPLSLPVSLGDQASISCRSSQSIVHSNGNTYLQWYLQKPGQSPKLLIYKVSNRFSGVPDRFSGSGSGTDFTLKISRVEAEDLGVYYCFQGSHVPYTFGGGPSNKR
On to B8, for which the binding result in assay [1] and in assay [2] was “binds” in each case.

B9: 201805_NiV_PL3_G2 (antibody, V domains shown)
VH: QIQLVQSGPELKKPGETVKISCTTSGFIFRNYGVNWVKRAPGKGLKWMGWIDAYTGEPAYADDFKGRFAFSLEMSANTAYLQITNLKNEDMATYFCARQGWGEAMDYWGQGTSVTVSS
VL: DVLMTQSPLSLPVSSGDQASISCRSSQTFVHSNGNTYLEWYLQKPGQSPKLLIYKVSNRFSGVPDRFIGSGSGTDFTLKISRVEADDLGVYYCFQGSHVPWAFGGGTKLEIK
Take B9: the binding result in assay [1] and in assay [2] was “binds” in each case.

B10: 201805_NiV_PL3_G11 (antibody, V domains shown)
VH: QVQLQQSGAELVKPGASVKLSCKASGYIFTNYDINWVRQRPEQGLEWIGWIFPGDVSTNYNEKFKGKATLTTDKSSSTAYMQLSRLTSEDSAVYFCARRSFQAMDYWGQGTSVTVSA
VL: DVLMTQTPLSLPVSLGDQASISCRSSQSIVHSNGNTYLEWYLQKPGQSPKLLIYKVSNRFSGVPDRFSGSGSGTDFTLKISRVEAEDLGVYYCFQGSHVPWTFGGGTKLEIK
Take B10: the binding result in assay [1] and in assay [2] was “binds” each time.

B11: 201805_NiV_PL4_D8 (antibody, V domains shown)
VH: EVQLQQSGPELVKPGASVKISCQASGYTFTDSNMNWVRQTHGKSLEWIGDVNPNNGGTSYNQRFKGKATLTVDKSSSTAYMEFRSLTSEDSAVYFCSRRALITTVVADYYGLDYWGQGTSVTVSA
VL: SIVMTQSPKFLLVSAGDRVTMTCKASQSVNSDVVWFQQKPGQSPKLLIYYASIRYTGVPDRFTGSGYGTDFTFTISPVQAEDLAVYFCQQDYSSPYTFGGGTKLEIK
Turning to B11, the binding result in assay [3] is “binds”.

B12: 201805_NiV_P2_F7 (antibody, V domains shown)
VH: QVQLQQSGAELVKPGASVKMSCKASGYTFTNYWIHWVKQRPGQGLEWIGEIDPSNGNSDHNQDFKVKATLTVDTFSSTAYMQLNSLTSEDSAVYYCARSRYYFDYWGQGTTLTVSA
VL: QIVLPQSPAIMSASPGEKVTLTCSARSSVSSGYLYWYQQKPGSSPKLWIYSTSNLASGVPTRFSGSGSGTSYSLTISSMEAEDAASYFCHQWSSYPPTFGGGTKLEIK
Take B12: the binding result in assay [1] and in assay [2] was “binds” each time.

B13: 201805_NiV_PL4_C5 (antibody, V domains shown)
VH: EVQLQQSGPELVKPGASMKISCKASGYSFTGYTMNWVKQSHGKNLEWIGLINPYIGGTSYNQKFKGKATLTVDKSSSTAYMELLSLTSEDSAVYYCARLLGREGYYFDYWGQGTTLTSLS
VL: DIQMTQTTSSLSASLGDRVTISCRASQDISNYLNWYQQKPDGTVKLLIYYTSRLHSGVPSRFSGSGSGTDYSLTISNLEQEDIATYFCQQGTTLPFTFGSGTKWKN
Turning to B13, in assay [3], the binding result is given as “binds”.

B14: 201805_NiV_PL4_D5 (antibody, V domains shown)
VH: QIQLVQSGPELKKPGETVKISCKASGFTFTNYGINWVKQAPGKGLKWMGWTDTFTGEPTYADDFKGRFAFSLETSASTAYLQINNLKNEDMATYFCARQGWGEAMDYWGQGTSVTVSA
VL: DVLDEQFHFLPVSLGDQASISCRSSQSIVHSNGNTYLEWYLQKPGQSPKLLIYKVSNRFSGVPDRFSGSGSGTDFTLKISRVEAEDLGVYYCFQGSHVPWTFGGGTKLEIK
For the molecule B14, the binding result in assay [1] and in assay [2] was “binds” throughout.

B15: 201805_NiV_PL3_H3 (antibody, V domains shown)
V domain 1: EVQLEESGGGLVPGGSLKLSCAASGFTFISYAMSWIRQTPEKRLEWVATITSGGSYTYYPDSVMGRFTISRDNAKNTLHLQMSSLRSEDTAIYYCARGGYGSISPYYFDYWGQGTTLTSSA
V domain 2: DIQMTQSSSSFSVSLGDRVTITCKAGEDIYNRLAWYQQKPGNAPRLLISGAISLETGVPSRFSGSGSGKDYTLSITSLQTEDVATYYCQQYWTNPWTFGGGTKLKSN
Regarding B15, the binding result in assay [1] and in assay [2] was “binds” in each case.

B16: 201805_NiV_PL3_H11 (antibody, V domains shown)
VH: EVQLQQSGPELVKPGTSVKISCKASDYSFTGYFMNWVKQSHGKSLEWIGRINPYNGDTFYNQKFKGKATLTVDKSSSTAHMELLSLTSEDSAVYYCAAFDVYYPAWFAYWGQGTTVTVSS
VL: DIQMTQSSSSFSVSLGDRVTFTCKASEDIYNRLAWYQQKPGNAPRLLISGATSLETGVPSRFSGSGSGKDYTLTITSLQTEDVATYYCQQYWSIPWTFGGGTKLEIK
As for B16, the binding result in assay [3] was “binds”.

B17: 201805_NiV_PL3_A4 (antibody, V domains shown)
VH: QVQLQQSGTELVKPGASVKLSCKASGYTFTSYWMHWVKQRPGQGLEWIGNINPSNGYTNNNEKFKSKATLTVDKSSSTAYMQLSSLTSEDSAVYYCARGGIYYYGSSLYYYTMDYWGQGTSVTVSS
VL: DIQMTQSSSSFSVSLGDRVTITCKASEDIYNRLAWYQQKPGNAPRLLISDATSLETGVPSRFSGSGSGKDYTLSITSLQTEDVATYYCHQYWSTPWTFGGGTKLEIK
As to B17, the binding result in assay [2] was “binds”.

B18: 201805_NiV_P1_H5 (antibody, V domains shown)
VH: EFQLQQSGPEVVKPGASVRISCKTSGYSFTDYNMNWVRQNNGRSLEWIGVINPNYGTFTYNQKFRGKATLTVDQSSSTAYMQLNSLTSADSAVYFCARAPDYYGINFYFDYWGQGTTLTVSA
VL: DVVMTQTPLSLPVSLGDQASISCRSSQSLVHSNGDTYLHWYLQKPGQSPKLLIYKVSNRFSGVPDRFSGSGSGTDFTLKISRVEAEDLGVYFCSQSTHVPPWTFGGGTKLEIK
Regarding B18, the binding result in assay [3] was “binds”.

B19: 201805_NiV_PL4_F4 (antibody, V domains shown)
VH: EFQLQQSGPEVVKPGASVKISCKTSGYSFTDYNMNWVKQSNGKSLEWIGVINPNYGTTTYNQKFRGKATLTVDQSSSTAYMQLNSLTSEDSAVYYCARAPDYYGINFYFDYWGQGTTLTVSA
VL: DVVMTQSPLSLPVSLGDQASISCRSSQSLVHSNGDTYLHWYLQKPGQSPKLLIYKVSNRFSGVPDRFSGSGSGTDFTLKISRVEAEDLGVYFCSQSTHVPPWTFGGGTKLEIK
Turning to B19, the binding result in assay [3] was “binds”.

B20: 201805_NiV_PL3_C3 (antibody, V domains shown)
V domain 1: RFKLQQSGPELVKPGASMKISCKASGYSFTGYTMNWVKQSHGKNLEWIGLINPYIGGTSYNQKFKGKATLTVDKSSSTAYMELLSLTSEDSAVYYCARGGVYYGSNYDFDYWGQGTTLTSLS
V domain 2: DIQMTQTTSSLSASLGDRVTISCSASQGISNYLNWYQQKPDGTVKLLIYYTSSLHSGVPSRFSGSGSGTDYSLTISNLEPEDIATYYCQQYSKLPRTFGGGTKLKSN
For B20, the binding result in assay [3] is reported as “binds”.
